Assay results reported in the Immune Epitope Database (IEDB).
pKd: −log10 of the molar value.

biological target: HLA-A*02:01; assay: IEDB peptide-MHC binding, purified MHC/competitive/radioactivity; filed as Kd, often an IC50 or EC50 that approximates it; ≥ and ≤ were set here for values at or beyond the usual limits of such assays; conditions: source organism: Trypanosoma cruzi

Sequence	pKd
FLLLGLWGFA	6.68
FLYNRPLSV	6.84
FVDYNFTIV	6.62
FVNHDFTVV	6.52
GIRPYEILA	7.48
IAGGVMAVV	6.71
IVMGNGTLV	6.00
KLFPEVIDL	6.69
LLGLWGLTGL	8.89
LLLGLWGFAA	6.27
LLLLGLWGL	7.66
LLPSLFLLL	6.90
LLYSDDALHL	6.50
MLQDGNKGSV	6.08
PLLLLGLWGL	6.19
SVYVDAKLV	6.99
VLAKDGTEV	7.17
VLLPSLFLL	7.44
VLLPSLFLLL	7.00
WVFPESISPV	6.96
